Test results reported in the supplement of paper PMC12042874.
± gives the uncertainty stated by the source.

assay: amyloid nucleation score (Sup35N fusion, yeast selection) (log enrichment); library NNK2; higher = more nucleation; inactive = no reads after selection
Method in brief: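 Nucleation score: DiMSum log enrichment of output over input reads, centred on the mode score of non-aggregating sequences. Only sequences with at least 100 input reads were kept. Reads came from Illumina sequencing of plasmid inserts before and after 7 days of growth at 30°C without adenine and uracil, in psi-negative yeast expressing Sup35N fused to peptides of 20 random codons after 24 hours of induction with 100 μM copper sulfate.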

Row | Substance | amyloid nucleation score
1 | GADAGDCPRNHSCAMHAEGF | 1.13 ± 0.46
2 | NPTYYRARGE | 2.96 ± 0.11
3 | SRPMTWGRKDVGSGSLQDYA | 0.248 ± 0.33
4 | LMLTCKLSFPGLVNLSCSPI | -0.84 ± 0.34
5 | LITQKHFTRVTNMPIRLCSL | -0.491 ± 0.41
6 | MPYTCMGVFVAHMEATE | 0.316 ± 0.4
7 | FGFVTKYFMGV | 1.96 ± 0.23
8 | THLKYTFWIFV | 2.62 ± 0.14
9 | DLIYGGYST | inactive
10 | DITYEYTTWGFLRRQAIRRP | 3.63 ± 0.089
11 | HHLKGPSQPSIVEIFE | -0.081 ± 0.31
12 | PSNKLKWLCLDV | 0.576 ± 0.43
13 | SRLVVRN | inactive
14 | VICGLTPDRDAHMYLTIFWL | 0.578 ± 0.81
15 | IYKILLLLAGRRGFDCLVFS | -0.926 ± 0.74
16 | LKSKVTLSYYSIVPAISVYE | inactive
17 | SITMELVYLPYQFMKSRRSW | 4.35 ± 0.067
18 | ICPFKSWFFYSLPYAFVRFT | inactive
19 | CDSDSLGVTYVDDDCGYNYC | -1.03 ± 0.55
20 | NRKTSGLYVFRWRKRPR | 0.264 ± 0.4
21 | GFVDELLNKRRLMCLIKTWK | 0.179 ± 0.44
22 | FMSRTWLAYFTCKMLHGLLR | 0.863 ± 0.41

Row | Substance | amyloid nucleation score
23 | NRFAHNALVAL | 4.08 ± 0.062
24 | WIYIIVSPFMRWLESSLLSA | inactive
25 | PWSSHCSCVFNNKDLILGNT | -0.21 ± 0.79
26 | RVGRSSKLWGFREYTSRKFG | 0.28 ± 0.77
27 | DYSSVVYNDGIWKGAPNFK | -2.05 ± 0.78
28 | TRNAFNCTENISTLPTARYL | -0.399 ± 0.46
29 | GELWCDLRILFVGVSLIVL | inactive
30 | SDERSGFRTSVRG | 0.479 ± 0.29
31 | LFCSRQSTWPRDKGVFPWTI | -0.916 ± 1.1
32 | VFILSEYVTNAVK | -0.165 ± 0.54
33 | FCEICPKYYALFEEGQLSGR | 3.62 ± 0.068
34 | RASARLVCTFYVLTERG | 4.17 ± 0.064
35 | FPAQPAVRSRSACWYVLQVR | 0.111 ± 0.49
36 | FVRGDSGFTLNAAR | -0.288 ± 0.3
37 | FIRHSTSALGP | 0.889 ± 0.43
38 | QLFFRYYCEAGDVCIFGHIA | 3.32 ± 0.099
39 | LLRILANQLKYYETTLCVGG | -0.27 ± 1.1
40 | REAARRLGEKPNIAVGFDAG | 0.559 ± 0.44
41 | VMNHWCNVWSFPWTMVRTHQ | 0.352 ± 0.31
42 | LVAHPLYGSTKWGN | -0.596 ± 0.79
43 | QLCLLCFLYMC | 3.16 ± 0.16
44 | TYLLLWSCGWLSWRVICALR | 4.66 ± 0.089

Row | Substance | amyloid nucleation score
45 | DPITFEVSCNANVIDPNSLV | -1.22 ± 0.38
46 | CPRVSVSSVLMGKLFL | -1.15 ± 0.54
47 | YIVCYAVSGLVWSIGSHEGM | 1.86 ± 0.13
48 | SGTWMGAATY | 3.62 ± 0.11
49 | LIYITVGRLQHGALCFLGKC | 0.148 ± 1
50 | YRAAWSSAAG | -0.137 ± 1.1
51 | VYMHASCSERSMDESRNRVD | inactive
52 | IRKALNASVLKLT | 1.1 ± 0.36
53 | YISCYCRSSFRMLSVVSDYR | 2.54 ± 0.077
54 | SPFIRHLNGSICRDNYFYVG | 3.03 ± 0.063
55 | VPIKGHNRHMMNYNSEKAGS | -1.13 ± 0.76
56 | TGQKFT | -0.615 ± 0.41
57 | GGVIVQYLPFSNYLRKQGSL | -0.304 ± 0.39
58 | GLNVHVVRLGIQLFFKWNDI | 1.74 ± 0.18
59 | SWWIGASEVVHGSKSEGI | -0.357 ± 1.1
60 | GVVNSRYALFNCRLEFKDVL | 9.742 ± 0.071
61 | VKNCDWGIYIILSGFMRVTR | -1.27 ± 1.1
62 | IFAGIHWNGQSAFLVFKCHI | inactive
63 | GYSSGFQVAVNLRSTLRQSY | 3.03 ± 0.068
64 | MGLSAVQVFSRRCSFSGKWC | inactive
65 | LCWLATRVLSSNDSLYENME | 3.65 ± 0.071
66 | NLCSGTIVVFIGCMKAAWFV | 4.39 ± 0.045

Row | Substance | amyloid nucleation score
67 | MVPKNFYFRRWLSWLRVRLL | 0.144 ± 0.52
68 | FCIPYGGLIDTA | -1.52 ± 0.41
69 | RIRYGLKVCSMVDGMLGRDW | 0.807 ± 0.29
70 | WGWEIFIVWTWLRGVILYVL | -0.602 ± 1.1
71 | SVESIYLVVDVMMLGELCCA | 4.849 ± 0.034
72 | YLNGLTYWDIMLPWAII | -0.324 ± 1.1
73 | REGPCGELGELPVLKRRGKH | 0.986 ± 0.41
74 | AYFKYCSSLRGSIRDNRADW | 0.113 ± 0.63
75 | CRISVIFLYFSFFY | inactive
76 | SVKLHSGGSWLRTWDWPRVC | 1.55 ± 0.21
77 | VINSMY | 1.11 ± 0.45
78 | VSVVFNARPHRDSHNPSAER | 6.129 ± 0.054
79 | DVPLCLYCMYLSSFRVVIWM | 2.35 ± 0.1
80 | YIMSFRY | -0.592 ± 0.79
81 | NNQYINWMRKCG | -0.671 ± 0.41
82 | NFFRAENVYCSMLFSKGWDW | 6.966 ± 0.049
83 | VSSHNCWFFRGSGWFLFHHW | inactive
84 | RMRCLDSVQGLNLIHTDVSV | inactive
85 | NDTSYGAQRRVCSTFQGCVT | 0.211 ± 0.32
